{
  "source": "patent US12187807B2",
  "about": "“Antibody molecules to C5AR1 and uses thereof” (Visterra, Inc., priority 2020, dated 2025)",
  "molecules": {"B1": {"name": "clone 329: anti-C5aR1 Site II antibody; VH SEQ ID NO: 492, VL SEQ ID NO: 552 (antibody, V domains shown)", "VH": "QVQLQQSGAELTKPGASVKLSCKASGYTFTNYWMHWVKQRPGQGLEWIGYLNPSSGYTKYNQKFKDKATLTADKSSSTAYMQLNSLTYEDSAVYYCTRSGGDNYGNPYYFDRWGQGTTVTVSS", "VL": "DVVMTQTPLSLTVSLGDQASISCRSSQSLVHSNGNTYLHWYLQKPGQSPKFLIYKVSNRFSGVPDRFSGSGSGTDFRLKISRVEAEDLGVYFCSQSTLVPLTFGAGTKLEIK"}, "B2": {"name": "clone 583: anti-C5aR1 Site I antibody; VH SEQ ID NO: 536, VL SEQ ID NO: 595 (antibody, V domains shown)", "VH": "EVQLVESGGGLVKPGGSLKLSCAASGFTFNAYAMSWVRQTPEKRLEWVASISTGGNTYCPDSVKDRFTVSRDNVRNILYLQMSSLRSEDTAMYYCTRGYQRFSGFAYWGQGTLVTVS", "VL": "DVVMTQTPLSPPVSLGYQASISCRSSQSLVHSNGNTYLNWYLQKPGQSPKLLIYKVSNRLSGVPDRFSGSGSGTDFTLKISRVETEDLGVYFCSQSTHVPYTFGGGTKLEIK"}, "B3": {"name": "clone 66: anti-C5aR1 Site I antibody; VH SEQ ID NO: 483, VL SEQ ID NO: 543 (antibody, V domains shown)", "VH": "QVQLQQSDAELVKPGASVKISCKASGYTFIDHAIHWVKQRPEQGLEWIGYISPGNGEIKYNEKFKAKATLTADKSSSAAYMQLNSLTSADSAVYFCKRALFYYTGKYQPMDYWGQGTTVTDSS", "VL": "DIVMTQSQKFMSTTAGDRVSITCKASQNVGSAVVWYQQKPGRSPKLLIYSSSIRYTGVPDRFTGSGSGTDFTLTINSVQSEDLADYFCQQYNSFPLTFGAGTKLEIK"}},
  "key": {"[1]": {"target": "T1, C5aR1 on human neutrophils (Homo sapiens, UniProt P21730)", "T1 construct": "neutrophils isolated from whole blood; host or cells: human neutrophils (cryopreserved, or isolated from whole blood)", "T1 sequence (P21730 1-350)": "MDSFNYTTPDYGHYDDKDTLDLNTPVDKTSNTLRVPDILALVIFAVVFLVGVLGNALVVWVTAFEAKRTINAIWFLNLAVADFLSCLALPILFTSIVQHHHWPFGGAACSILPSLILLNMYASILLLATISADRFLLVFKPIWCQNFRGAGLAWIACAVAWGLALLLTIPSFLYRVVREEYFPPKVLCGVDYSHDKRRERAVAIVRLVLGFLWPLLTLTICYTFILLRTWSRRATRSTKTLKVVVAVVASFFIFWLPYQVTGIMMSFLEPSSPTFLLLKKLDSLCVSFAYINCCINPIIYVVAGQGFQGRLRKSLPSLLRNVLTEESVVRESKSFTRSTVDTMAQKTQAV", "assay": "Cell surface binding (flow cytometry), human neutrophils", "settings": "half-log titrations 10^−7.5 to 10^−12 M, vs isotype controls", "experimental": "Follow up screening to ensure specificity was performed by measuring cell surface binding to cells expressing, for example, human C5aR1, human C5aR2, mouse C5aR1, and control cells that were mock transfected. Briefly, cell surface binding was performed on various C5aR1 expressing cell lines (transiently expressed Expi293 cells, stable C5aR1-U937 cells, and neutrophils isolated from whole blood). Briefly, a titration of antibody diluted in flow buffer (1×PBS with 2% fetal bovine serum) was incubated with cells for 1 hour at 4° C. Cells were washed twice with flow buffer. Anti-human-APC secondary antibody was diluted 1:400 in flow buffer and incubated with cells for 30 minutes. Cells were washed twice with flow buffer and resuspended in 100 μL of flow buffer. Fluorescence was measured using the iQue Screen Plus flow cytometer.\nExemplary anti-C5aR1 antibodies generated as described in Example 1 were tested for binding to human neutrophils. Briefly, cryopreserved human neutrophils were obtained from Asarte Biologics."}, "[2]": {"target": "T2, C5aR1 (C5aR1-U937 cells) (Homo sapiens, UniProt P21730, K279N)", "T2 construct": "expressed in transfected cells", "T2 sequence (P21730 with tags, fused parts or gaps K279N limits assumed)": "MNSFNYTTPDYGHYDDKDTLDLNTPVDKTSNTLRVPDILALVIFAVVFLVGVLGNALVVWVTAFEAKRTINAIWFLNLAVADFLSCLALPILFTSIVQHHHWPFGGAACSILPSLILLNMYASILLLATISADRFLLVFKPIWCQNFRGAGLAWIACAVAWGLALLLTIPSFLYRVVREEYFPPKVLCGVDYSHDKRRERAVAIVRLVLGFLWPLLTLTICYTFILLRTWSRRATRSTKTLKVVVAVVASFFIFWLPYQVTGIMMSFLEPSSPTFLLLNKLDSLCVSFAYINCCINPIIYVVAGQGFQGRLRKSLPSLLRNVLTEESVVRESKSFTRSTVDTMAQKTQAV", "assay": "C5a induced calcium flux (Fluo-4), C5aR1-U937 cells", "format": "cell-based", "description": "Intracellular calcium is released into the cytoplasm by stimulation of GPCRs and acts as a second messenger of GPCR signaling, commonly used to quantify GPCR agonism and antagonism. As such, calcium flux assays using calcium sensitive dye were utilized to detect cytosolic changes in calcium concentration. […] The dye penetrated the cell membrane and became active once inside the cell. The active form of the dye became fluorescent after binding to intracellular calcium and the fluorescence was used to determine C5aR1 signaling in response to C5a addition. Specifically, stable C5aR1-U937 cells or neutrophils isolated from whole blood were stained with Fluo-4 Direct Calcium Assay kit from Thermo Fisher for 1 hour at 37° C. Next, antibody or antagonist was incubated with the cells for 30 minutes. The basal fluorescence with an excitation at 494 nm and emission at 516 nm was measured for 15 seconds. C5a was added to the cells and the fluorescence was measured over a span of four minutes. The basal read from before C5a stimulation and the max signal after C5a stimulation were used to calculate the response ratio. The potency of the antibodies was assessed for their ability to inhibit intracellular calcium release in C5aR1 expressing cells in the presence of C5a. Similar to the chemotaxis assay, the calcium flux assays were performed using engineered cells stably expressing C5aR1 as well as using human neutrophils."}, "[3]": {"target": "T3, C5aR1 mutants (N-terminus, ECL1, ECL2, ECL3) (Homo sapiens, UniProt P21730, K279N/Y11F)", "T3 sequence (P21730 with tags, fused parts or gaps Y11F/K279N)": "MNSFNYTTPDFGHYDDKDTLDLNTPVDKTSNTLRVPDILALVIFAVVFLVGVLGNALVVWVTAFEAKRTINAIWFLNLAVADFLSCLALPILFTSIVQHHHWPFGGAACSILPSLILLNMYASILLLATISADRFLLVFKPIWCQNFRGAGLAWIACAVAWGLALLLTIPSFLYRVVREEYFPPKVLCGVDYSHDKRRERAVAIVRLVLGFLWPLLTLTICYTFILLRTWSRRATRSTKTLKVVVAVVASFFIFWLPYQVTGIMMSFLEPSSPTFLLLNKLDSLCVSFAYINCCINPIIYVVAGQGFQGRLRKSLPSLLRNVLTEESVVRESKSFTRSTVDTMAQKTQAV", "assay": "Alanine scanning / mutagenesis epitope mapping of C5aR1", "format": "binding", "settings": "Y11F", "description": "FIG. 5A is a diagram showing the results of alanine scanning mutations of site I interaction with mab 583. The N-terminal amino acid sequence of C5aR1 is listed across the top of the figure. Glycosylation sites are indicated by rectangle boxes. The only natural glycosylation site is at position N5. The other sites were introduced by mutagenesis. Mutations that abolished clone 583 binding are circled. The sulfated tyrosines at positions 11 and 14 are marked with a star sign. FIG. 5B is a diagram showing results of alanine scanning mutations of site I interaction with mab 66. Mutations that abolished clone 66 binding are circled. The sulfated tyrosines at positions 11 and 14 are marked with a star sign.\nAla substitutions of T8 & D10 moderately reduces its affinity while Y11 & D15 abolishes mAb binding. […] N-glycosylation of at N17 or D17P also abolishes mAb binding. N5 glycan is tolerated but a tandem glycosylation (N5 & N17) is not tolerated. mAb core epitopes are T8-G12 but nature of AA present in D15-D18 influence its binding. […] The core epitope appears to be located near T8-G12, with additional contributions from D15-D18.\nClone 66 was previously characterized as a site I binder and its binding is dependent on tyrosine sulfation at positions 11Y and/or 14Y. […] It should be noted that the only the only non-human species to retain clone 66 binding was baboon, which is the only NHP that retains the DYGHY motif.\nHowever, it was unknown if additional contacts were made with ECL1 or ECL3. […] The data is highlighted in FIG. 5C-5E.\nThe core epitope of clone 11 is from E180-P183; the core epitope of clone 329 is from E180-P184; and the core epitope of clone 336 is from R178-P183. […] The data for clones 11, 329, and 336 is highlighted in FIG. 5F."}},
  "note": "Entries after “also recorded” stand apart in the source; their conditions may differ. Read-outs that look alike come from different tables or passages of the source.",
  "data": [
    {"molecule": "B1", "values": [
      {"measurement": "level of binding to human neutrophils", "setting": "[1]", "value": "highest level of neutrophil binding"},
      {"measurement": "inhibition of C5a induced intracellular calcium flux", "setting": "[2]; listed as 329", "value": "inhibition of the C5a induced calcium efflux; also recorded: inhibited by antibody 329 in a dose-dependent manner; also recorded: inhibited calcium flux as single agents in a dose-dependent manner"}
    ]},
    {"molecule": "B2", "values": [
      {"measurement": "inhibition of C5a induced intracellular calcium flux", "setting": "[2]", "value": "inhibition of the C5a induced calcium efflux"},
      {"measurement": "binding to C5aR1 mutant", "setting": "[3]", "value": "does not abolish binding"}
    ]},
    {"molecule": "B3", "values": [
      {"measurement": "level of binding to human neutrophils", "setting": "[1]", "value": "highest level of neutrophil binding"},
      {"measurement": "inhibition of C5a induced intracellular calcium flux", "setting": "[2]", "value": "inhibited calcium flux as single agents in a dose-dependent manner"},
      {"measurement": "binding to C5aR1 mutant", "setting": "[3]", "value": "did not impact binding"}
    ]}
  ]
}
